Measured values as given in patent publication US20230250154A1 (CYTONICS, published 2023).

T1: ADAMTS4 (human, UniProt O75173 213-685, limits assumed)
T1 sequence (looked up): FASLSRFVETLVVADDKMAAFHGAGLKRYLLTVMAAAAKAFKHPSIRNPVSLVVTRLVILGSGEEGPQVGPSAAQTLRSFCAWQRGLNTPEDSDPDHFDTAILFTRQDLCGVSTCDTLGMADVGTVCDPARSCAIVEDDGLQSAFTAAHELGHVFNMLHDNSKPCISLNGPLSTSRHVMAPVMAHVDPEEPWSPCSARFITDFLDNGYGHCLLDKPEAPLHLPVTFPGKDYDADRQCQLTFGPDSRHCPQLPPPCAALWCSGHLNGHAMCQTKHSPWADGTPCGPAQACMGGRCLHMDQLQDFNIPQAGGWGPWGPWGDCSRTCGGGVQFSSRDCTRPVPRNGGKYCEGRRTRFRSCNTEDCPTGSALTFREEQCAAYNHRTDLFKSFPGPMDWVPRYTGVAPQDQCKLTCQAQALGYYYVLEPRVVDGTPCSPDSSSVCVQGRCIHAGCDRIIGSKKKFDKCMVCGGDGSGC

T2: Cathepsin G (UniProt P08311 21-244)
T2 sequence (looked up): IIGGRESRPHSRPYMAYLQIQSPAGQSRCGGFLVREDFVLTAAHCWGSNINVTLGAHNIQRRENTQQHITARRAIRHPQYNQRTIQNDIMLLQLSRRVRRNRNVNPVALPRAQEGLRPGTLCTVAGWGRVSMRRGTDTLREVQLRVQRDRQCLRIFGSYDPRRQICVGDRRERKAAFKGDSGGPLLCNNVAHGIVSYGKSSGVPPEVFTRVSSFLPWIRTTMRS

T3: MMP7 (UniProt P09237 95-267, limits assumed)
T3 sequence (looked up): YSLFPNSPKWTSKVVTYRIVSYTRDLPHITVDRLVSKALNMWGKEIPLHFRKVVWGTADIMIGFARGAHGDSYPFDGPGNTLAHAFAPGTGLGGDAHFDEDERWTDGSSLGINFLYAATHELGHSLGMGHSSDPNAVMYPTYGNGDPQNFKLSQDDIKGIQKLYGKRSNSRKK

T4: MMP1 (human, UniProt P03956 100-469, limits assumed)
T4 sequence (looked up): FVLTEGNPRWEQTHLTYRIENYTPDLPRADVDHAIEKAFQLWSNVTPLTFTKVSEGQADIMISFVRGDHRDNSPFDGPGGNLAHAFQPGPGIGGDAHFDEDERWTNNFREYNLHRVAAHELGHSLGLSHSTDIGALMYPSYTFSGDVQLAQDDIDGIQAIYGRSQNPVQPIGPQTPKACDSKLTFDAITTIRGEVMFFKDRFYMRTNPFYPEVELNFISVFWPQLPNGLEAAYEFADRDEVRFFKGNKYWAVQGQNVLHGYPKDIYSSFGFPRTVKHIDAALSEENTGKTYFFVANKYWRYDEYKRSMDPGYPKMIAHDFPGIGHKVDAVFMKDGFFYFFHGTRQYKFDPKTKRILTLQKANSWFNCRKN

T5: MMP2 (human, UniProt P08253 110-660, limits assumed)
T5 sequence (looked up): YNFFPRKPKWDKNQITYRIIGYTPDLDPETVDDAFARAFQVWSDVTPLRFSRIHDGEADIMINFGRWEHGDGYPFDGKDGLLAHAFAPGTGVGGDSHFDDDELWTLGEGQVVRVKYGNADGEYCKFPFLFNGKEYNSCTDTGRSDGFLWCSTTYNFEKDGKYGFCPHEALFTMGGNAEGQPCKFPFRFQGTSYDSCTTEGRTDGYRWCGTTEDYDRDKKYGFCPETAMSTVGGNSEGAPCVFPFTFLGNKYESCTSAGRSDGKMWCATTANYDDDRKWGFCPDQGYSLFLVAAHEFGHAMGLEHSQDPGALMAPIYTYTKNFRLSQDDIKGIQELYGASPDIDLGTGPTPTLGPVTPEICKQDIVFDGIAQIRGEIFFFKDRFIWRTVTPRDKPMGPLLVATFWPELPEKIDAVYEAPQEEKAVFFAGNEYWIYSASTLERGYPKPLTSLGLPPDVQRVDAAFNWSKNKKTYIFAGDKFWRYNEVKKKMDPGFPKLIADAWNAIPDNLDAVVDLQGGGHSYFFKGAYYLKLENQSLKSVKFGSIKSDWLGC

T6: ADAMTS5 (human, UniProt Q9UNA0 262-622, limits assumed)
T6 sequence (looked up): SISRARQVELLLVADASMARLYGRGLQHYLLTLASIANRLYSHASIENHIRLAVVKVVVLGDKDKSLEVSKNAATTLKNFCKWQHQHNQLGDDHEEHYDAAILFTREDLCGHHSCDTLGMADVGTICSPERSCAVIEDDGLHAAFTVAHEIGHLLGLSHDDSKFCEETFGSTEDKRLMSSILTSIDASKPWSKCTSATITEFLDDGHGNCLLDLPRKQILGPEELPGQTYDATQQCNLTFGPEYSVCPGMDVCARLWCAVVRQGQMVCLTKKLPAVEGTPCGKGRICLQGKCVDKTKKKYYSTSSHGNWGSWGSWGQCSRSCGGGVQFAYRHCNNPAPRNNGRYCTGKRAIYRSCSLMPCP


How the values were obtained:
Assay in all cases: cell-based or functional assay
[1] = target: T1, ADAMTS4
[2] = target: Elastase
[3] = target: T2, Cathepsin G
[4] = target: T3, MMP7
[5] = target: MMP3 (human, UniProt P08254 100-477, limits assumed)
[6] = target: T4, MMP1
[7] = target: MMP9 (human, UniProt P14780 107-707, limits assumed)
[8] = target: MMP8 (human, UniProt P22894 101-467, limits assumed)
[9] = target: T5, MMP2
[10] = target: T6, ADAMTS5
[11] = target: MMP13 (human, UniProt P45452 104-471, limits assumed)

Chain of MMP8 (P22894 101-467 limits assumed): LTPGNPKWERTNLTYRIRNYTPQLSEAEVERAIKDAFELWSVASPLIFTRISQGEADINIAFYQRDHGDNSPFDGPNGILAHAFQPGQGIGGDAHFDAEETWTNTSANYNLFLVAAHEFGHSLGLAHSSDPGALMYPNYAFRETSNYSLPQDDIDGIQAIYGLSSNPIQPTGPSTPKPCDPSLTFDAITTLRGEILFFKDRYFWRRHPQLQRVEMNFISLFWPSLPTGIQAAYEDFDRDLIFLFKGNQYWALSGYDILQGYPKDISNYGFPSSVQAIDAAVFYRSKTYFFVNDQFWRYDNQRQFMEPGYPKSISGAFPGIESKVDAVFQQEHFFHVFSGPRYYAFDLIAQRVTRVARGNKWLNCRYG
Chain of MMP9 (P14780 107-707 limits assumed): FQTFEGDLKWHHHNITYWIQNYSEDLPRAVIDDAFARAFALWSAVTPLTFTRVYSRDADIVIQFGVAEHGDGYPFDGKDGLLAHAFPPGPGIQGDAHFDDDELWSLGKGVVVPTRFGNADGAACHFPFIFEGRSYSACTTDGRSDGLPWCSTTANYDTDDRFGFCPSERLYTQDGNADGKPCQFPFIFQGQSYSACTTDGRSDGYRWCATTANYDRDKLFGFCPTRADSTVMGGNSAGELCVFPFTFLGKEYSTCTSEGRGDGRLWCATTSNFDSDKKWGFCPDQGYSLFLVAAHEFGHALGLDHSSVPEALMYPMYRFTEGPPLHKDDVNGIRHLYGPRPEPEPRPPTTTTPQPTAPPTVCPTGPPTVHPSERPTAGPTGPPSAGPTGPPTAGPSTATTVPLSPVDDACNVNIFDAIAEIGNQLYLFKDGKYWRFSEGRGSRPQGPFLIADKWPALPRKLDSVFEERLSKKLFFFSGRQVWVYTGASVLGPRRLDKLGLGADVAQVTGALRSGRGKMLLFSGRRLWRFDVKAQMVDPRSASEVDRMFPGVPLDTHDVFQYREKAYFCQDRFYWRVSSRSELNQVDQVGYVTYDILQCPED
Chain of MMP3 (P08254 100-477 limits assumed): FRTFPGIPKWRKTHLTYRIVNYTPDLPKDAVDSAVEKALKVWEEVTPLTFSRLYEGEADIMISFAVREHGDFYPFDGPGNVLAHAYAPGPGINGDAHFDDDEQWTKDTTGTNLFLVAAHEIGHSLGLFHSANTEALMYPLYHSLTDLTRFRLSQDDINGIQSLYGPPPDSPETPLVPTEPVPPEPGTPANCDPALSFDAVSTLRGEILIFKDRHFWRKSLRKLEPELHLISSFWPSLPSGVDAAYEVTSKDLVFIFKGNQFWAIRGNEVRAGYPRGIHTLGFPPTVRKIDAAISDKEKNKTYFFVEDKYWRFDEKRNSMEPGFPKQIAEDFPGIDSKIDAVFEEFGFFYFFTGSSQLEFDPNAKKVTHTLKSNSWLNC

| Protease Inhibition (% of WT) [1] | Protease Inhibition (% of WT) [2] | Protease Inhibition (% of WT) [3] | Protease Inhibition (% of WT) [4] | Protease Inhibition (% of WT) [5] | Protease Inhibition (% of WT) [6] | Protease Inhibition (% of WT) [7] | Protease Inhibition (% of WT) [8] | Protease Inhibition (% of WT) [9] | Protease Inhibition (% of WT) [10] | Protease Inhibition (% of WT) [11] | Binder |
| --- | --- | --- | --- | --- | --- | --- | --- | --- | --- | --- | --- |
| 176 % of WT | 147 % of WT | 145 % of WT | 191 % of WT | 111 % of WT | 133 % of WT | 71 % of WT | 132 % of WT | 80 % of WT | 200 % of WT | 133 % of WT | Variant A2M, bait region SEQ ID NO 23 (other) SVSGKPQYMVLVPSLLHTETTEKGCVLLSYLNETVTVSASLESVRGNRSLFTDLEAENDVLHCVAFAVPKSSSNEEVMFLTVQVKGPTQEFKKRTTVMVKNEDSLVFVQTDKSIYKPGQTVKFRVVSMDENFHPLNELIPLVYIQDPKGNRIAQWQSFQLEGGLKQFSFPLSSEPFQGSYKVVVQKKSGGRTEHPFTVEEFVLPKFEVQVTVPKIITILEEEMNVSVCGLYTYGKPVPGHVTVSICRKYSDASDCHGEDSQAFCEKFSGQLNSHGCFYQQVKTKVFQLKRKEYEMKLHTEAQIQEEGTVVELTGRQSSEITRTITKLSFVKVDSHFRQGIPFFGQVRLVDGKGVPIPNKVIFIRGNEANYYSNATTDEHGLVQFSINTTNVMGTSLTVRVNYKDRSPCYGYQWVSEEHEEAHHTAYLVFSPSKSFVHLEPMSHELPCGHTQTVQAHYILNGGTLLGLKKLSFYYLIMAKGGIVRTGTHGLLVKQEDMKGHFSISIPVKSDIAPVARLLIYAVLPTGDVIGDSAKYDVENCLANKVDLSFSPSQSLPASHAHLRVTAAPQSVCALRAVDQSVLLMKPDAELSASSVYNLLPEKDLTGFPGPLNDQDDEDCINRHNVYINGITYTPVSSTNEKDMYSFLEDMGLKAFTNSKIRKPKMCPQLEHGPIPENFYGVEGEGLGIGSEDLVVQISELEGRGSVEEPHTKLRKYFPETWIWDLVVVNSAGVAEVGVTVPDTITEWKAGAFCLSEDAGLGISSTASLRAFQPFFVELTMPYSVIRGEAFTLKATVLNYLPKCIRVSVQLEASPAFLAVPVEKEQAPHCICANGRQTVSWAVTPKSLGNVNFTVSAEALESQELCGTEVPSVPEHGRKDTVIKPLLVEPEGLEKETTFNSLLCPSGGEVSEELSLKLPPNVVEESARASVSVLGDILGSAMQNTQNLLQMPYGCGEQNMVLFAPNIYVLDYLNETQQLTPEIKSKAIGYLNTGYQRQLNYKHYDGSYSTFGERYGRNQGNTWLTAFVLKTFAQARAYIFIDEAHITQALIWLSQRQKDNGCFRSSGSLLNNAIKGGVEDEVTLSAYITIALLEIPLTVTHPVVRNALFCLESAWKTAQEGDHGSHVYTKALLAYAFALAGNQDKRKEVLKSLNEEAVKKDNSVHWERPQKPKAPVGHFYEPQAPSAEVEMTSYVLLAYLTAQPAPTSEDLTSATNIVKWITKQQNAQGGFSSTQDTVVALHALSKYGAATFTRTGKAAQVTIQSSGTFSSKFQVDNNNRLLLQQVSLPELPGEYSMKVTGEGCVYLQTSLKYNILPEKEEFPFALGVQTLPQTCDEPKAHTSFQISLSVSYTGSRSASNMAIVDVKMVSGFIPLKPTVKMLERSNHVSRTEVSSNHVLIYLDKVSNQTLSLFFTVLQDVPVRDLKPAIVKVYDYYETDEFAIAEYNAPCSKDLGNADYKDDDDKGASHHHHHH |
| 144 % of WT | 100 % of WT | 117 % of WT | 140 % of WT | 86 % of WT | 101 % of WT | 25 % of WT | 36 % of WT | 43 % of WT | 376 % of WT | 138 % of WT | Variant A2M, bait region SEQ ID NO 25 (other) SVSGKPQYMVLVPSLLHTETTEKGCVLLSYLNETVTVSASLESVRGNRSLFTDLEAENDVLHCVAFAVPKSSSNEEVMFLTVQVKGPTQEFKKRTTVMVKNEDSLVFVQTDKSIYKPGQTVKFRVVSMDENFHPLNELIPLVYIQDPKGNRIAQWQSFQLEGGLKQFSFPLSSEPFQGSYKVVVQKKSGGRTEHPFTVEEFVLPKFEVQVTVPKIITILEEEMNVSVCGLYTYGKPVPGHVTVSICRKYSDASDCHGEDSQAFCEKFSGQLNSHGCFYQQVKTKVFQLKRKEYEMKLHTEAQIQEEGTVVELTGRQSSEITRTITKLSFVKVDSHFRQGIPFFGQVRLVDGKGVPIPNKVIFIRGNEANYYSNATTDEHGLVQFSINTTNVMGTSLTVRVNYKDRSPCYGYQWVSEEHEEAHHTAYLVFSPSKSFVHLEPMSHELPCGHTQTVQAHYILNGGTLLGLKKLSFYYLIMAKGGIVRTGTHGLLVKQEDMKGHFSISIPVKSDIAPVARLLIYAVLPTGDVIGDSAKYDVENCLANKVDLSFSPSQSLPASHAHLRVTAAPQSVCALRAVDQSVLLMKPDAELSASSVYNLLPEKDLTGFPGPLNDQDDEDCINRHNVYINGITYTPVSSTNEKDMYSFLEDMGLKAFTNSKIRKPKMCPQLEHGPEGEGEGEGIPENFYGVSEDLYTASELEGRGSVEEPHTKLRKYFPETWIWDLVVVNSAGVAEVGVTVPDTITEWKAGAFCLSEDAGLGISSTASLRAFQPFFVELTMPYSVIRGEAFTLKATVLNYLPKCIRVSVQLEASPAFLAVPVEKEQAPHCICANGRQTVSWAVTPKSLGNVNFTVSAEALESQELCGTEVPSVPEHGRKDTVIKPLLVEPEGLEKETTFNSLLCPSGGEVSEELSLKLPPNVVEESARASVSVLGDILGSAMQNTQNLLQMPYGCGEQNMVLFAPNIYVLDYLNETQQLTPEIKSKAIGYLNTGYQRQLNYKHYDGSYSTFGERYGRNQGNTWLTAFVLKTFAQARAYIFIDEAHITQALIWLSQRQKDNGCFRSSGSLLNNAIKGGVEDEVTLSAYITIALLEIPLTVTHPVVRNALFCLESAWKTAQEGDHGSHVYTKALLAYAFALAGNQDKRKEVLKSLNEEAVKKDNSVHWERPQKPKAPVGHFYEPQAPSAEVEMTSYVLLAYLTAQPAPTSEDLTSATNIVKWITKQQNAQGGFSSTQDTVVALHALSKYGAATFTRTGKAAQVTIQSSGTFSSKFQVDNNNRLLLQQVSLPELPGEYSMKVTGEGCVYLQTSLKYNILPEKEEFPFALGVQTLPQTCDEPKAHTSFQISLSVSYTGSRSASNMAIVDVKMVSGFIPLKPTVKMLERSNHVSRTEVSSNHVLIYLDKVSNQTLSLFFTVLQDVPVRDLKPAIVKVYDYYETDEFAIAEYNAPCSKDLGNADYKDDDDKGASHHHHHH |
